# Results reported in publication PMC8939299, “Molecular characterization of a novel GSTO2 of Fasciola hepatica and its roles in modulating murine macrophages” (Parasite, 2022).
# Tested on: O=C1O[C@H]([C@@H](O)CO)C(=O)C1=O
# Test: purified protein
# Conditions: 1 mM GSH fixed, DHA 0-0.25 mM (Figure 3 legend: 0-2.5 mM), potassium phosphate, pH 7.5, 25 °C
substance,measurement,value
rGSTO2 (Fasciola hepatica),Km,287 µM
